Results taken from the supplement of paper PMC11316812.
± gives the standard deviation of the averaged measurements.

Key:
hTERT-HMEC = assay: percentage of EdU-negative (G0-arrested) nuclei per well, 72 h; higher = more G0 arrest; settings: reference: sequence is the full UniProt precursor, the tested protein was the secreted form or ectodomain
MCF7 = assay: as above; settings: reference: sequence is the full UniProt precursor, the tested protein was the secreted form or ectodomain
[1] = protein concentration 0.0147125 µM
[2] = protein concentration 0.147125 µM
[3] = protein concentration 0.0294675 µM
[4] = protein concentration 0.294675 µM
[5] = protein concentration 0.0225 µM
[6] = protein concentration 0.02125 µM
[7] = protein concentration 0.2125 µM
[8] = protein concentration 0.00725 µM
[9] = protein concentration 0.0725 µM
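Further: secreted proteins added to cultured cells, EdU pulse at the end, nuclei found by Hoechst imaging, EdU status from nuclear versus surrounding ring intensity ratio, PBS as neutral control.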

## MDTPRVLLSAVFLISFLWDLPGFQQASISSSSSSAELGSTKGMRSRKEGKMQRAPRDSDAGREGQEPQPRPQDEPRAQQPRAQEPPGRGPRVVPHEYMLSIYRTYSIAEKLGINASFFQSSKSANTITSFVDRGLDDLSHTPLRRQKYLFDVSMLSDKEELVGAELRLFRQAPSAPWGPPAGPLHVQLFPCLSPLLLDARTLDPQGAPPAGWEVFDVWQGLRHQPWKQLCLELRAAWGELDAGEAEARARGPQQPPPPDLRSLGFGRRVRPPQERALLVVFTRSQRKNLFAEMREQLGSAEAAGPGAGAEGSWPPPSGAPDARPWLPSPGRRRRRTAFASRHGKRHGKKSRLRCSKKPLHVNFKELGWDDWIIAPLEYEAYHCEGVCDFPLRSHLEPTNHAIIQTLMNSMDPGSTPPSCCVPTKLTPISILYIDAGNNVVYKQYEDMVVESCGCR [Q6KF10]
hTERT-HMEC; [1]
  percentage of EdU-negative: 4.28 ± 0.073%
hTERT-HMEC; [2]
  percentage of EdU-negative: 5.35 ± 0.57%
MCF7; [1]
  percentage of EdU-negative: 25.3 ± 1.3%
MCF7; [2]
  percentage of EdU-negative: 28.7 ± 2.5%

## MRAWIFFLLCLAGRALAAPQQEALPDETEVVEETVAEVTEVSVGANPVQVEVGEFDDGAEETEEEVVAENPCQNHHCKHGKVCELDENNTPMCVCQDPTSCPAPIGEFEKVCSNDNKTFDSSCHFFATKCTLEGTKKGHKLHLDYIGPCKYIPPCLDSELTEFPLRMRDWLKNVLVTLYERDEDNNLLTEKQKLRVKKIHENEKRLEAGDHPVELLARDFEKNYNMYIFPVHWQFGQLDQHPIDGYLSHTELAPLRAPLIPMEHCTTRFFETCDLDNDKYIALDEWAGCFGIKQKDIDKDLVI
hTERT-HMEC; [3]
  percentage of EdU-negative: 4.83 ± 0.18%
hTERT-HMEC; [4]
  percentage of EdU-negative: 5.23 ± 0.79%
MCF7; [3]
  percentage of EdU-negative: 26.73 ± 0.018%
MCF7; [4]
  percentage of EdU-negative: 24.8 ± 0.39%

## MLQLWKLVLLCGVLTGTSESLLDNLGNDLSNVVDKLEPVLHEGLETVDNTLKGILEKLKVDLGVLQKSSAWQLAKQKAQEAEKLLNNVISKLLPTNTDIFGLKISNSLILDVKAEPIDDGKGLNLSFPVTANVTVAGPIIGQIINLKASLDLLTAVTIETDPQTHQPVAVLGECASDPTSISLSLLDKHSQIINKFVNSVINTLKSTVSSLLQKEICPLIRIFIHSLDVNVIQQVVDNPQHKTQLQTLI [Q96DR5]
hTERT-HMEC; [5]
  percentage of EdU-negative: 4.84 ± 0.42%
hTERT-HMEC; protein concentration 0.225 µM
  percentage of EdU-negative: 4.68 ± 0.1%
MCF7; [5]
  percentage of EdU-negative: 27.4 ± 1.7%
MCF7; protein concentration 0.225 µM
  percentage of EdU-negative: 27.4 ± 1.2%

## Q9NQS3
hTERT-HMEC; [5]
  percentage of EdU-negative: 4.83 ± 1.2%
hTERT-HMEC; protein concentration 0.225 µM
  percentage of EdU-negative: 4.728 ± 0.0098%
MCF7; [5]
  percentage of EdU-negative: 25.9 ± 3.8%
MCF7; protein concentration 0.225 µM
  percentage of EdU-negative: 26.1 ± 2.9%

## MDPRKVNELRAFVKMCKQDPSVLHTEEMRFLREWVESMGGKVPPATQKAKSEENTKEEKPDSKKVEEDLKADEPSSEESDLEIDKEGVIEPDTDAPQEMGDENAEITEEMMDQANDKKVAAIEALNDGELQKAIDLFTDAIKLNPRLAILYAKRASVFVKLQKPNAAIRDCDRAIEINPDSAQPYKWRGKAHRLLGHWEEAAHDLALACKLDYDEDASAMLKEVQPRAQKIAEHRRKYERKREEREIKERIERVKKAREEHERAQREEEARRQSGAQYGSFPGGFPGGMPGNFPGGMPGMGGGMPGMAGMPGLNEILSDPEVLAAMQDPEVMVAFQDVAQNPANMSKYQSNPKVMNLISKLSAKFGGQA
hTERT-HMEC; [6]
  percentage of EdU-negative: 4.96 ± 0.58%
hTERT-HMEC; [7]
  percentage of EdU-negative: 5.35 ± 0.39%
MCF7; [6]
  percentage of EdU-negative: 24.8 ± 1.7%
MCF7; [7]
  percentage of EdU-negative: 27.4 ± 0.36%

## MPSWALFMVTSCLLLAPQNLAQVSSQDVSLLASDSEPLKCFSRTFEDLTCFWDEEEAAPSGTYQLLYAYPREKPRACPLSSQSMPHFGTRYVCQFPDQEEVRLFFPLHLWVKNVFLNQTRTQRVLFVDSVGLPAPPSIIKAMGGSQPGELQISWEEPAPEISDFLRYELRYGPRDPKNSTGPTVIQLIATETCCPALQRPHSASALDQSPCAQPTMPWQDGPKQTSPSREASALTAEGGSCLISGLQPGNSYWLQLRSEPDGISLGGSWGSWSLPVTVDLPGDAVALGLQCFTLDLKNVTCQWQQQDHASSQGFFYHSRARCCPRDRYPIWENCEEEEKTNPGLQTPQFSRCHFKSRNDSIIHILVEVTTAPGTVHSYLGSPFWIHQAVRLPTPNLHWREISSGHLELEWQHPSSWAAQETCYQLRYTGEGHQDWKVLEPPLGARGGTLELRPRSRYRLQLRARLNGPTYQGPWSSWSDPTRVETATETAWISLVTALHLVLGLSAVLGLLLLRWQFPAHYRRLRHALWPSLPDLHRVLGQYLRDTAALSPPKATVSDTCEEVEPSLLEILPKSSERTPLPLCSSQAQMDYRRLQPSCLGTMPLSVCPPMAESGSCCTTHIANHSYLPLSYWQQP
hTERT-HMEC; [8]
  percentage of EdU-negative: 4.77 ± 0.37%
hTERT-HMEC; [9]
  percentage of EdU-negative: 6.04 ± 0.21%
MCF7; [8]
  percentage of EdU-negative: 25.4 ± 0.65%
MCF7; [9]
  percentage of EdU-negative: 26.02 ± 0.25%

## MLVRRGARAGPRMPRGWTALCLLSLLPSGFMSLDNNGTATPELPTQGTFSNVSTNVSYQETTTPSTLGSTSLHPVSQHGNEATTNITETTVKFTSTSVITSVYGNTNSSVQSQTSVISTVFTTPANVSTPETTLKPSLSPGNVSDLSTTSTSLATSPTKPYTSSSPILSDIKAEIKCSGIREVKLTQGICLEQNKTSSCAEFKKDRGEGLARVLCGEEQADADAGAQVCSLLLAQSEVRPQCLLLVLANRTEISSKLQLMKKHQSDLKKLGILDFTEQDVASHQSYSQKTLIALVTSGALLAVLGITGYFLMNRRSWSPTGERLGEDPYYTENGGGQGYSSGPGTSPEAQGKASVNRGAQENGTGQATSRNGHSARQHVVADTEL
hTERT-HMEC; [5]
  percentage of EdU-negative: 5.14 ± 0.39%
hTERT-HMEC; protein concentration 0.225 µM
  percentage of EdU-negative: 5.89 ± 0.59%
MCF7; [5]
  percentage of EdU-negative: 26.6 ± 1.4%
MCF7; protein concentration 0.225 µM
  percentage of EdU-negative: 27.23 ± 0.19%
